Results published in article PMC7948927.

Tests used:
Test in all cases: MST
[1] = target: OGG1 I145M I145M (Homo sapiens) (UniProt O15527); details: saturation not reached; N at position 11 of strand 1 = THF (tetrahydrofuran abasic site analog), opposite C; MST: 100 nM labeled duplex, 0.0185-3.28 uM protein, 10 mM Na phosphate pH 7.5, 7% glycerol; temperature not stated
[2] = target: OGG1 R161W R161W (Homo sapiens) (UniProt O15527); details: saturation not reached; N at position 11 of strand 1 = THF (tetrahydrofuran abasic site analog), opposite C; MST: 100 nM labeled duplex, 0.0185-3.28 uM protein, 10 mM Na phosphate pH 7.5, 7% glycerol; temperature not stated
Chain of OGG1 R161W R161W (Homo sapiens) (O15527 whole entry R161W): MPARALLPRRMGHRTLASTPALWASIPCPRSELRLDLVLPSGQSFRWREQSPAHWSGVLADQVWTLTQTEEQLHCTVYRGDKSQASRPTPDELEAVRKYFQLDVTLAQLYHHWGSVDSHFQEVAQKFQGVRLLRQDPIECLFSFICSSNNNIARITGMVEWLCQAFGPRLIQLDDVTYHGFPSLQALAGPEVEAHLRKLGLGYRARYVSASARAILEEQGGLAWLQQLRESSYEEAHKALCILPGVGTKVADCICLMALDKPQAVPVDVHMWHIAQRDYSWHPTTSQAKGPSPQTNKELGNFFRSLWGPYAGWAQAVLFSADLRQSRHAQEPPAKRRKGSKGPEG

[3] = target: OGG1 S292N S292N (Homo sapiens) (UniProt O15527); details: saturation not reached; N at position 11 of strand 1 = THF (tetrahydrofuran abasic site analog), opposite C; MST: 100 nM labeled duplex, 0.0185-3.28 uM protein, 10 mM Na phosphate pH 7.5, 7% glycerol; temperature not stated
Chain of OGG1 S292N S292N (Homo sapiens) (O15527 whole entry S292N): as the sequence (O15527 whole entry R161W) above, with W161R, S292N counted along it

OGG1 WT (Homo sapiens) = OGG1 WT (Homo sapiens) (UniProt O15527); details: N at position 11 of strand 1 = THF (tetrahydrofuran abasic site analog), opposite C; MST: 100 nM labeled duplex, 0.0185-3.28 uM protein, 10 mM Na phosphate pH 7.5, 7% glycerol; temperature not stated
Chain of OGG1 WT (Homo sapiens) (O15527 whole entry): as the sequence (O15527 whole entry R161W) above, with W161R counted along it

Chain of OGG1 I145M I145M (Homo sapiens) (O15527 whole entry I145M): as the sequence (O15527 whole entry R161W) above, with I145M, W161R counted along it

“CTCTCCCTTCNCTCCTTTCCTCT / AGAGGAAAGGAGCGAAGGGAGAG [THF:C duplex]” showed a Kd [1] of 900 nM, a Kd [2] of 1060 nM and a Kd [3] of 1390 nM. The Kd (OGG1 WT (Homo sapiens)) was 140 nM.
